Holding throughout (experiment): thermal shift assay, 1 mM peptide
For assay [1], the target named is GST-1β (GST-tagged HIF-1β 1-474, isoform 2, Δ77-91) (UniProt P27540).
For assay [2], the target named is 2α PASB (HIF-2α PASB domain, 240-350) (UniProt Q99814).
Assay [3] addresses 1α PASB (HIF-1α PASB domain, 238-349) (UniProt Q16665).
Assay [4] addresses Trx-2α (thioredoxin-tagged HIF-2α 1-360, bHLH-PASA-PASB) (UniProt Q99814).

Chain of 1α PASB (HIF-1α PASB domain, 238-349) (Q16665 238-349): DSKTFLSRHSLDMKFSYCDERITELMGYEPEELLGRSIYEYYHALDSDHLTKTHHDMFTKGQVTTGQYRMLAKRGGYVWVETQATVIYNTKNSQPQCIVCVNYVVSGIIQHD
Chain of Trx-2α (thioredoxin-tagged HIF-2α 1-360, bHLH-PASA-PASB) (Q99814 1-360): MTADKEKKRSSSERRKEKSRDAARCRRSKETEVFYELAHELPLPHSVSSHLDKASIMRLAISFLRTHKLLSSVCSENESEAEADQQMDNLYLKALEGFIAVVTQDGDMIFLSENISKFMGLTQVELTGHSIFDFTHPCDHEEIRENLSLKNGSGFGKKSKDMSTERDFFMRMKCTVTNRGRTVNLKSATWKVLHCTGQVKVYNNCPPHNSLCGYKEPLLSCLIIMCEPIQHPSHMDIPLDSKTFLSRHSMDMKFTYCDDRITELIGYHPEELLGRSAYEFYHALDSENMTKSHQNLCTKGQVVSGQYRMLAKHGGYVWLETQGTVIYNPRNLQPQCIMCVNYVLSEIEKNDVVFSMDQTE
Chain of 2α PASB (HIF-2α PASB domain, 240-350) (Q99814 240-350): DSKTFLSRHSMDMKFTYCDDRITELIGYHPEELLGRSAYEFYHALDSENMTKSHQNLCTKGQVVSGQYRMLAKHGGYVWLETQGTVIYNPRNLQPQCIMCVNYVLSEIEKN

As for CRVIIF (cyclic peptide (cyclo-, first amino acid joined to the last)) [cyclo-CRVIIF (SEQ ID NO 4)], the ΔTm in assay [1] is -0.5 ° C.

Consider SGWEMIQRR (cyclic peptide (first amino acid joined to the last)) [cyclo-… (SEQ ID NO 5)], for which the ΔTm was -2.5 ° C in assay [2], -0.5 ° C in assay [3] and -2 ° C in assay [4].

(Values after patent publication US20190033318A1.)
